Source: patent US20100222251A1, “MIXTURE COMPRISING AN AMYLIN PEPTIDE AND A PROTRACTED INSULIN” (Novo Nordisk A/S, priority 2007, published 2010)

Test: Solubility versus pH curves (centrifugation, reverse HPLC)
Format: physicochemical
Procedure: Solubility versus pH curves were measured in the following way. A formulation was prepared and aliquotes were adjusted to pH values in the desired range by adding HClO4 or HCl and NaOH. These samples were left equilibrating at room temperature for 2-3 days. Then the samples were centrifuged. A small aliquot of each sample was withdrawn for reverse HPLC analysis for determination of the concentration of the proteins in solution. The pH of each sample was measured after the centrifugation, and the concentration of each protein was depicted versus the measured pH.

pH of full precipitation (below physiological pH) (Example 2 mix, 0.6 mM GlyA21 ArgB31 ArgB32 human insulin, 0.46 mM Zn(Ac)2, 30 mM phenol, 50 μM pramlintide) [pH]	Molecule	pH of complete precipitation (below physiological pH) (Example 1, 0.6 mM GlyA21 ArgB31 ArgB32 human insulin, 0.46 mM Zn(Ac)2, 30 mM phenol) [pH]	precipitation versus pH compared to formulation of the insulin analogue alone (Example 2 mix, 0.6 mM insulin analogue, 0.46 mM Zn(Ac)2, 30 mM phenol, 50 μM pramlintide)	solubility state at pH 7 (Example 3 mix, pH 7, 0.6 mM GlyA21 ArgB31 ArgB32 human insulin, 0.3 mM Zn(Ac)2, 30 mM phenol, 100 μM pramlintide)	pH above which completely precipitated (FIG. 1, 0.6 mM GlyA21 ArgB31 ArgB32 human insulin, 0.46 mM Zn(Ac)2, 30 mM phenol) [pH]
	GlyA21 ArgB31 ArgB32 human insulin	< 7.4	not changed	completely precipitated	> 6.5
< 7.4	CC[C@H](C)[C@H](NC(=O)[C@@H]1CCCN1C(=O)CNC(=O)[C@H](Cc1ccccc1)NC(=O)[C@H](CC(N)=O)NC(=O)[C@H](CC(N)=O)NC(=O)[C@H](CO)NC(=O)[C@H](CO)NC(=O)[C@H](Cc1c[nH]cn1)NC(=O)[C@@H](NC(=O)[C@H](CC(C)C)NC(=O)[C@H](Cc1ccccc1)NC(=O)[C@H](CC(N)=O)NC(=O)[C@H](C)NC(=O)[C@H](CC(C)C)NC(=O)[C@H](CCCNC(=N)N)NC(=O)[C@H](CCC(N)=O)NC(=O)[C@@H](NC(=O)[C@H](C)NC(=O)[C@@H]1CSSC[C@H](NC(=O)[C@@H](N)CCCCN)C(=O)N[C@@H](CC(N)=O)C(=O)N[C@@H]([C@@H](C)O)C(=O)N[C@@H](C)C(=O)N[C@@H]([C@@H](C)O)C(=O)N1)[C@@H](C)O)C(C)C)C(=O)N[C@@H](CC(C)C)C(=O)N1CCC[C@H]1C(=O)N1CCC[C@H]1C(=O)N[C@H](C(=O)N[C@@H](CC(N)=O)C(=O)N[C@H](C(=O)NCC(=O)N[C@@H](CO)C(=O)N[C@@H](CC(N)=O)C(=O)N[C@H](C(=O)N[C@@H](Cc1ccc(O)cc1)C(N)=O)[C@@H](C)O)C(C)C)[C@@H](C)O [pramlintide, Pro25 Pro28 Pro29-h-amylin]				
